Assay results: PMC3382596, “A Phthalimide Derivative That Inhibits Centrosomal Clustering Is Effective on Multiple Myeloma” (PLoS ONE, 2012)

Target: the molecule itself
Assay: SEC; gel filtration of recombinant NPM(1-183) from E. coli to separate oligomeric and monomeric forms; fractions checked by SDS-PAGE with CBB staining

B1: Recombinant NPM(1-183), the 183 NH2-terminal amino acids of nucleophosmin 1 (domain or fragment, human, UniProt P06748 1-183, looked up)
chain: MEDSMDMDMSPLRPQNYLFGCELKADKDYHFKVDNDENEHQLSLRTVSLGAGAKDELHIVEAEAMNYEGSPIKVTLATLKMSVQPTVSLGGFEITPPVVLRLKCGSGPVHISGQHLVAVEEDAESEDEEEEDVKLLSISGKRSAPGGGSKVPQKKVKLAADEDDDDDDEEDDDEDDDDDDFDD
notes: nucleophosmin 1 (NPM/B23), clone from a cDNA library of the human multiple myeloma cell line KMS34; also called NPM/B23; 1-183 NPM; source: E. coli, partially purified, fractionated by gel filtration
B1: binds.
